{"source": "patent US9757471B2", "about": "“Protozoan variant-specific surface proteins (VSP) as carriers for oral drug delivery” (priority 2012, dated 2017)", "key": {"[1]": {"format": "physicochemical", "conditions": "in the presence of VSP; no degradation after incubation at pH 2", "protocol": "To assess in vitro the capacity of VSP carriers to protect IL-2 from degradation, the capacity of a VSP carrier (e.g., recombinant VSP1267) to protect human IL-2 from conditions similar to those present in the GIT was evaluated. The capacity of the VSP to protect IL-2 from degradation caused by extreme pHs or by enzymatic proteolysis (e.g., by trypsin and/or pancreatine) was assayed using the methods described in the Examples above.\nIL-2 alone or mixed with VSP carrier was incubated at different pHs or with different concentration of proteolytic enzymes such as trypsin. The presence of IL-2 after the pH and proteolyitc enzyme challenges was detected using Coomassie stain of SDS-PAGE gels."}, "trypsin [2]": {"system": "trypsin", "assay": "hGH stability to trypsin, without or with VSP carrier (Western blot, silver staining)", "format": "in vitro ADME", "method": "(§1) To evaluate in vitro the capacity of a VSP carrier to protect bioactive peptides from degradation, we evaluated the capacity of recombinant VSP1267 to protect human growth hormone (Somatotropin, hGH) (Biosidus, Argentina), an 191 amino acids long protein, from conditions similar to those present in the GIT. Similar to the previous analysis performed with the VSPs alone, the capacity of the VSP to protect hGH from degradation caused by extreme pHs or by enzymatic proteolysis was assayed.\nhGH was also treated for 90 min at 37° C. with several concentrations of trypsin (0, 100, 150, 200, and 500 μg/mL). […] This protective effect was observed up to a 150 μg/mL trypsin concentration."}, "[3]": {"format": "physicochemical", "conditions": "hGH combined with chimeric VSP protein (SEQ ID NO: 589) derived from T. thermophila and G. intestinalis", "text": "(§2) To determine if VSP-like proteins retain the Giardia VSP extracellular domain properties, and therefore can be used as VSP carriers or as components of chimeric VSP proteins, a DNA fragment of a Tetrahymena thermophila VSP-like protein encoding a VSP domain (TTHERM_00826790 hypothetical protein; SEQ ID NO: 590) was modified using stander molecular biology techniques to generate a chimeric VSP. The chimeric VSP protein (SEQ ID NO: 589) comprised the sequences encoding the signal peptide (SEQ ID NO: 591) of Giardia intestinalis VSP1267 and a His6 purification tag fused respectively to the amino terminus and carboxy terminus of the sequence of a VSP domain (SEQ ID NO: 592) located between amino acid positions 977 and 1465 of the VSP-like protein from Tetrahymena (SEQ ID NO: 590).\n(§3) The chimeric VSP was cloned into a bacmid for expression in Sf9 insect cells. Once expressed and secreted to the culture supernatant, the chimeric VSP protein was purified on a Nickel column as described in Example 2.\n(§4) The chimeric VSP protein was used to verify the stability of hGH to pH and trypsin sensitivity."}, "[4]": {"format": "physicochemical", "method": "as §1\nThe anti-hGH monoclonal antibody was subsequently used to determine the degree of resistance of hGH to different pHs. hGH was incubated at different pHs (1.6, 2.0, 3.8, 5.0, 5.8, 7.0, 8.0, 9.0, 10.0, and 11.0) for 90 minutes."}, "trypsin [5]": {"system": "trypsin", "format": "in vitro ADME", "conditions": "hGH combined with chimeric VSP protein (SEQ ID NO: 589) derived from T. thermophila and G. intestinalis", "text": "as §2, §3, §4"}, "[6]": {"assay": "Serum hGH levels in mice after oral administration of hGH alone or with VSP carrier", "format": "in vivo", "conditions": "hGH alone, oral 50 to 800 μg, female Balb/c mice", "method": "hGH serum levels were tested after oral administration, evaluating different doses and measurement times, to determine the best dose for combination with the VSP carrier VSP1267 (FIG. 11A). As in previous experiments, female Balb/c mice, 7 weeks old, were left without food intake for 2 hours and then received the doses indicated in […] (i.e., 50, 100, 200, 400 and 800 μg of hGH). In a parallel experiment, hGH was administered subcutaneously (FIG. 11A, inset). […] Thus, a direct relationship between absorption and these variables (time and concentration) could not be determined."}, "trypsin [7]": {"system": "trypsin", "assay": "Western blot of VSPs after trophozoite trypsinization", "format": "in vitro ADME", "conditions": "trophozoites, trypsin 200 μg/mL and 2 mg/mL, 90 min at 37° C., PBS pH 7.4, Western blot", "method": "Giardia parasite clones WB-9B10, WB-1267 and GS-H7 (expressing, respectively, the VSP9B10, VSP1267 and VSPH7 VSPs) were resuspended in PBS at pH 7.4 and treated for 90 min at 37° C. with variable concentrations of trypsin (200 μg/mL and 2 mg/mL). Then, the parasites were lysed and equivalent protein amounts were applied to each lane in the SDS-PAGE gels."}, "[8]": {"assay": "pH resistance assay of VSPs on Giardia trophozoites (immunofluorescence)", "format": "physicochemical", "conditions": "trophozoites in RPMI, pH 1 to pH 10, 90 minutes, immunofluorescence microscopy", "method": "To determine whether VSPs are resistant to variable pH and to proteolytic digestion, two different Giardia isolates (clonal trophozoite populations) were treated with trypsin and with variable pH and the effect of those conditions on the VSP expressed by each isolate were monitored using immunofluorescence assays.\nFor the pH resistance assay. Giardia parasites were resuspended in RPMI cell culture medium at variable pHs, from pH 1 to pH 10. in 1 pH unit increments (only pH 1, 3, 5 and 10 are shown in FIG. 2B). Giardia parasites were kept at the different pHs for 90 minutes, washed, and then incubated with the corresponding monoclonal antibody."}}, "note": "“Also recorded” adds a separate entry of the source.", "data": [{"molecule": "IL-10: human interleukin-10, anti-inflammatory cytokine", "values": [{"measurement": "resistance to low pH", "setting": "[1]", "result": "resistant"}]}, {"molecule": "Somatotropin [hGH]", "values": [{"measurement": "protection of hGH from trypsin degradation", "setting": "trypsin [2]; VSP carrier added at 3:1 VSP/hGH (1:3 hGH to VSP) ratio", "result": "able to protect hGH from trypsin degradation; also recorded: protects hGH from trypsin degradation"}, {"measurement": "hGH degradation by trypsin", "setting": "trypsin [2]; hGH alone, 90 min at 37° C., trypsin 100 to 500 μg/mL", "result": "rapidly degraded even at the lowest protease concentrations; also recorded: completely proteolyzed"}, {"measurement": "protection of hGH from degradation at low pH", "setting": "[3]", "result": "able to protect hGH from degradation"}, {"measurement": "change of hGH degradation levels with VSP carrier at different pHs", "setting": "[4]", "result": "no significant changes"}, {"measurement": "protection of hGH from degradation by trypsin", "setting": "trypsin [5]", "result": "able to protect hGH from degradation"}, {"measurement": "oral absorption of hGH (serum levels) compared with subcutaneous", "setting": "[6]", "result": "much lower levels than subcutaneously absorption"}, {"measurement": "variability of oral absorption regarding times and amounts", "setting": "[6]", "result": "highly variable"}]}, {"molecule": "VSP1267: Giardia variant-specific surface protein expressed by clone WB-1267 (Uniprot:Q07317) (protein, listed as Giardia intestinalis) MLLIAFYLILSTFAVDCKNSGNSCEAGQCDTIGDTEICMQCNQGKVPINGICTAHSEEAVTNAGCKKNGGTNIEESDKVCGQCGNGYFLHKGGCYKIGEAPGNLICADEASNPGARTAGVCGACKDGYYKNSDAVATADSCIACEDANCATCGGAGENKCTKCIDGYFVGATGNEGGCIKCDATTGPNSYKGVAGCAKCEKPKNAGPAKCIECAADYLKTEADEQTSCVSEAVCREGKTHFPTTDSAGGNKKVCVSCGTTNNGGIENCGECTSKESAARAGTEITCTKCSSNNLSPLGDACLTDCPAGTYAVSGDSGSVCKPCHNTCAGCQTDDRETSCTACYPGYSLLYESNGATGRCVKECTGAFITNCADGQCTANVGGAKYCTQCKDGYAPIDGICTAVAAAGRDVSVCTATGGKCTACTGNYALLSGGCYNTQTLPGKSVCKAVANSNDGKCKTCANGQAPDPATNFCPLCDSTCAECSTKNDADACTKCFPGYYKTGNKCIKCTESSNNGKKIDGIPDCLSCEAPINTGPVICYVKTDGTSDDNSGNGGDSTNKSGLSTGAIAGISVAAFVVVAGLVGFLCWWFICRGKA", "values": [{"measurement": "VSP survival of exposure to trypsin", "setting": "trypsin [7]", "result": "able to survive exposure to trypsin"}]}, {"molecule": "VSPH7: Giardia variant-specific surface protein of the GS/M isolate, clone GS-H7 (Uniprot: Q24992) (protein, listed as Giardia intestinalis) MFLLINCLIASTLAGACSTTQANCVAEKCEMVGETEICTQCKQNYVPINGVCEAAASSNTKCQKASADEASDQTCGKCLSTTFMYKGGCYDKTGNLGRIICKTEGSDAGKCGACNDEKGFFDNPDAANNVDSCISCGDATGVTIPGSSTKTYKGVAGCAKCTKPSQISENTGTKEATCTECNANLYLKAVSSPTSATSCVSAEDCKTGYFPTTDTTDSKKKCLTCSTADKGGIDGCSACELLPSTTRASTVLISCSACSTNNLSPLKNECMQDCPAGTYADSNVCKPCHTSCASCKGDNTESSCTACYPGSVLSYGTDNTKGTCIAECTGKYLENCADGQCTATIAGSKYCSKCKSGFVPVNGLCVSAETARAAPPGSTPDKTNGVCTACTEKYFLESGGCYQAEKFPGNTLCTTADAGKCTTCANGQDKDSNGSCPACPTNCASCAKDNTKTCNKCFSGYYLDTAKACKKCSETSGNIQGVENCISCLAPTSPQSSTPVTCYVKTSGGGSGDNSTGGDSGPNLSSGAIAGISVAVIVVVGGLVGFLCWWFVCRGKA", "values": [{"measurement": "VSP epitopes after incubation at variable pHs", "setting": "[8]", "result": "remained intact"}, {"measurement": "VSP survival of exposure to trypsin", "setting": "trypsin [7]", "result": "able to survive exposure to trypsin"}]}, {"molecule": "VSP9B10: Giardia variant-specific surface protein of the WB isolate, clone WB-9B10 (Uniprot:Q9GS24) (protein, listed as Giardia intestinalis) MFGSFVLAGVLVQIAWAGKATERAQEAQCADNTNCAAEACNVLIGGKLYCSRCNTGFVPINGQCADKEGATDKCKDGSGGDTADQTCGQCAEQTFMYKGGCYEAAQQPGQTMCQAADAGVCTQAAQGYFVPPGADASHQSVIPCGDEEEITVKNDKKYKGVLHCTRCNAPTEAADANAKAATCTACQADRYLKTAKDQATSCVTEQECTGTEGFFAKNGGTKTCEACAETCKTCKTEAAKCTSCKDDKPYLKKDNGSDTGTCVTEAECKTGNTHYPDDTEPKTCKTCAEGTSDGCATCEKGADGAVACKTCGNQKKVQPNKKGCVENCPSNSNDKKTPGTCECVEGYVPEEAGTGCTKKPDPPAAPCNTPGCKTCSEPKTSKEVCTECEDPKALTPTGQCIYGCEHLEGYYEGTSEGGKKACKKCEVENCLLCNENGQCETCKDGYYKKETACAKCDTSCKTCANGEPNGCTSCEAKKALSYEGEGNTGTCKSECKPGTNNCEKCELTVDGTAYCSKCKDANQFPQNGVCSAAAGKAITCTTKGTGVCDKCANGLLRMNGGCYETTKFPGKSVCEEAASAGDTCQVEAPGYHLNNNDLVTCSAGCKTCTSNTVCTECMDGYAKTDNKCTKCATGCATCAGSASNCDTCSTGYYKYKNACVSCTESNSDKTITGVANCANCAPPLNNKGSVLCYLVQSGENTNKSGLSAGAIAGIAVAVIIVVGGLVGFLCWWFMCRGKA", "values": [{"measurement": "VSP epitopes after incubation at variable pHs", "setting": "[8]", "result": "remained intact"}, {"measurement": "VSP survival of exposure to trypsin", "setting": "trypsin [7]", "result": "able to survive exposure to trypsin"}]}]}
